Results reported in publication PMC8368996, “Interactions between AMOT PPxY motifs and NEDD4L WW domains function in HIV-1 release” (The Journal of Biological Chemistry, 2021).

System: full-length NEDD4L
Assay: FP binding of Alexa Fluor-tagged recombinant AMOT1-300 to full-length recombinant NEDD4L
Procedure: A labeled peptide (GGG-ALEXA488) was added to AMOT1-300 (which carried a sortase tag) by transpeptidation with sortase. Typical reactions contained 10 to 50 μM AMOT1-300, 30 to 150 μM GGG-ALEXA488 peptide and 20 μM sortase enzyme in the reaction buffer (50 mM Tris [pH 7.5], 150 mM NaCl and 10 mM CaCl2). Reactions were allowed to proceed at either room temperature or 4 °C until the reaction was complete (typically 1–4 h). AMOT1-300–ALEXA488 was then purified by ion-exchange chromatography (SP HiTrap) as described above.
Each dilution series was performed at least in triplicate. […] The mean Kd values are reported as mean ± SEM.

B1: AMOT1-300: Alexa Fluor 488-tagged recombinant AMOT construct (residues 1–300) spanning all three PPxY motifs, labeled by sortase transpeptidation (protein)
chain: MRNSEEQPSGGTTVLQRLLQEQLRYGNPSENRSLLAIHQQATGNGPPFPSGSGNPGPQSDVLSPQDHHQQLVAHAARQEPQGQEIQSENLIMEKQLSPRMQNNEELPTYEEAKVQSQYFRGQQHASVGAAFYVTGVTNQKMRTEGRPSVQRLNPGKMHQDEGLRDLKQGHVRSLSERLMQMSLATSGVKAHPPVTSAPLSPPQPNDLYKNPTSSSEFYKAQGPLPNQHSLKGMEHRGPPPEYPFKGMPPQSVVCKPQEPGHFYSEHRLNQPGRTEGQLMRYQHPPEYGAARPAQDISLPL
modifications: GGG-ALEXA488 peptide added by transpeptidation with sortase; left off: His, end not stated, state not stated | sortase tag, end not stated, kept
notes: Alexa Fluor 488-tagged recombinant AMOT construct (residues 1–300) spanning all three PPxY motifs, labeled by sortase transpeptidation
With B1 as the molecule, how does the “fold tighter binding than the isolated AMOT PPxY1-NEDD4L WW3 complex” value (AMOT1-300-full-length NEDD4L vs PPxY1-WW3) read?
The value was 1.5 fold.

What about the “apparent dissociation constant, AMOT1-300 with full-length NEDD4L” value (Fig. 3C/E, FP, Alexa Fluor 488-tagged AMOT1-300, full isotherm not sampled because of limited solubility of full-length NEDD4L) of the same molecule?
The value was 2.7 ± 0.8 µM.
